# Experimental data published in patent EP0672136B1, “POLYPEPTIDES, DERIVED FROM ENDONEXIN 2, HAVING HEPATITIS B VIRUS RECEPTOR ACTIVITY AND THEIR USE IN DIAGNOSTIC AND PHARMACEUTICAL COMPOSITIONS” (priority 1992, dated 1994).
# Biological target: T1, major HBsAg (Hepatitis B virus genotype A2 subtype adw2, UniProt P03141)
# T1 construct: purchased Merck Sharp and Dohme Laboratories (gift of Dr. W. J. Miller, not bought); host or cells: yeast
# Assay: Binding of radiolabeled endonexin II to immobilized major HBsAg in the presence of endonexin II peptide fractions (F-peak inhibition assay)
# Design: species or system HBV
# Conditions: fractions of acid-hydrolysed human liver endonexin-II; triplicate; Figure 23A
# Protocol: Purified endonexin-II was treated according to the method as described in example 3. (Hydrolysis in 3% formic acid at 112°C for 4h). After treatment with formic acid, the protein digest was separated by reversed phase HPLC on a Vydac C-4 column (2.1 x 250 mm, Hesperia, CA, USA) as described in example 3. Peptide peaks were registered on a chart recorder and collected manually.
# Binding experiments were performed according to the method as described in example 1 and 5. However, binding of radiolabeled endonexin-II to immobilized major HBsAg was carried out in the presence of individual peak fractions of unlabeled digested human liver endonexin-II (see above). The experiment was performed in triplicate. […] Therefore, these peptide was considered as one of the important major HBsAg-binding epitopes on endonexin-II. By sequencing an identical peak fraction in a parallel experiment, peptides corresponding to peaks F and S were determined as amino acids 266 to 280 (peak F, DHTLIRVMVSRSEID) and amino acids 92-138 (peak S): […]) of human endonexin II (numbering according to Kaplan et al., 1988).
# T1 sequence (P03141 175-400): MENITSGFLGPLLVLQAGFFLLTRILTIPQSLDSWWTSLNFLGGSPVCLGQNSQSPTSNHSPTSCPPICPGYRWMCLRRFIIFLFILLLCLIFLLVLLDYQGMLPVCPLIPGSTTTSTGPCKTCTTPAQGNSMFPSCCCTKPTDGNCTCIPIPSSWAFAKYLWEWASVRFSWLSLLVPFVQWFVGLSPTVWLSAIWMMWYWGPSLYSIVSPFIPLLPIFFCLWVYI
sequence,measurement,value
"DEEKFITIFGTRSVSHLRKVFDKYMTISGFQIEETI [peak L, region encompassing amino acids 190 to 225 of human endonexin]",inhibition of binding of radiolabeled endonexin-II to major HBsAg by HPLC peak fraction,slightly lower binding inhibition capacity
